T1: MORT-1 (Homo sapiens, UniProt Q13158, G32V)
T1 sequence (Q13158 with tags, fused parts or gaps G32V): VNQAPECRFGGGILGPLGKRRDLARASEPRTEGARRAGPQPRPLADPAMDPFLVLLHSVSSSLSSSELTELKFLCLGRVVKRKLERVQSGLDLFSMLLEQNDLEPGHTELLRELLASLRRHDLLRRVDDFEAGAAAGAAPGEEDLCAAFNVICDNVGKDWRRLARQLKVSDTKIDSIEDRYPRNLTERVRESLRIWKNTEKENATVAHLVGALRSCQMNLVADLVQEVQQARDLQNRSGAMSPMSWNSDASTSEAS


Assays:
MORT-1 = target: T1, MORT-1; test: Two-hybrid β-galactosidase filter assay (FIG. 5), binding to MORT-1; set-up: the full-length MORT-1 cDNA was used (MORT 1); expressed in transfected cells; host or cells: SFY526 yeast; details: two hybrid test
Experimental: The yeast two-hybrid test was further applied to evaluate the specificity of binding of MACH to MORT-1, in particular, to define the region in MORT-1 to which MACH binds, as well as to determine which of the MACH ORFs interacts with MORT-1, the procedures being as set forth herein above in Examples 1 and 2. Briefly, various MORT-1 and MACH constructs were prepared for testing the interaction of the proteins encoded by the Gal4 DNA-binding domain and activation domain constructs within transfected SFY526 yeast cells as assessed by the β-galactosidase expression filter assay. The DNA-binding domain constructs were prepared in pGBT9 vectors and the activation domain constructs were prepared in pGAD-GM vectors. For the activation domain constructs, the full-length MACH cDNA was used (MACH), as was a construct encoding only the ORF-B (MACH B) region. Control activation domain constructs were those containing the full-length MORT-1 coding sequence (MORT 1, positive control) and those having no inserts, i.e., “empty” vectors (pGAD-GM). For the DNA-binding domain constructs, the full-length MORT-1 cDNA was used (MORT 1), as were constructs encoding only the MORT-1 […] (MORT-1DD aa 130-245). […] In the assay, the development of color was determined, where the greater the color development, the greater the interaction between the constructs encoded by the DNA-binding domain and activation domain; Color development was depicted by symbols, where “+++” and “+” indicate the development of a strong color within 30 and 90 min. of the assay, respectively, and “−−−” indicates the lack of development of color within 24 hrs. of the assay. […]
In FIG. 5, there is shown the results of the interaction of MORT-1 and MACH within transfected yeast cells. […] Their interaction was assessed by a β-galactosidase expression filter assay as described in Boldin et al (1995b). […]

yeasts = test: Cytotoxic effect on transfected yeasts (yield of colonies); format: cell-based, yeast; details: decrease in the yield of colonies; activation domain vector
Description: To find out if MACHα1 can bind to MORT1, as does MACHβ1, the interaction of the proteins within transfected yeasts was first examined. […] This effect was manifested in a marked decrease in the yield of colonies in yeasts that expressed the protein in the activation domain (AD) vector (whose expression level is higher than that of the DNA binding domain (DBD) vector). On the other hand, […] in which the catalytic cysteine residue, Cys360, was replaced with Ser (MACHα1 (C360S)) was not cytotoxic to either mammalian cells (see below), or yeast. Like MACHβ1, MACHα1 (C360S) bound in tranfected yeast to MORT-1 and also to itself. It also bound to MACHβ1. […] The intensity of the lacZ-product color varied, however, among the yeast colonies; in yeasts tranfected with MACHα1 in both the AD and the DBD vectors no color product was observed, probably because of the cytotoxic effect of the wild-type MACHα1.

Molecule | binding to MORT-1 in transfected yeast (MORT-1) | cytotoxic effect on yeasts (yeasts)
MACHα1: MACH isoform, cDNA SEQ ID NO: 14, amino acid SEQ ID NO: 7; contains CED3/ICE homology region | scored clearly positive | significant cytotoxic effect
MACHβ1: MACH isoform, cDNA SEQ ID NO: 4, amino acid SEQ ID NO: 5; lacks the CED3/ICE homology region (protein) MDFSRNLYDIGEQLDSEDLASLKFLSLDYIPQRKQEPIKDALMLFQRLQEKRMLEESNLSFLKELLFRINRLDLLITYLNTRKEEMERELQTPGRAQISAYRVMLYQISEEVSRSELRSFKFLLQEEISKCKLDDDMNLLDIFIEMEKRVILGEGKLDILKRVCAQINKSLLKIINDYEEFSKERSSSLEGSPDEFSNDFGQSLPNEKQTSGILSDHQQSQFCKSTGESAQTSQH | binds | –
MACHα1 (C360S): MACHα1 mutant in which the catalytic cysteine Cys360 is replaced by Ser (protein) MDFSRNLYDIGEQLDSEDLASLKFLSLDYIPQRKQEPIKDALMLFQRLQEKRMLEESNLSFLKELLFRINRLDLLITYLNTRKEEMERELQTPGRAQISAYRVMLYQISEEVSRSELRSFKFLLQEEISKCKLDDDMNLLDIFIEMEKRVILGEGKLDILKRVCAQINKSLLKIINDYEEFSKERSSSLEGSPDEFSNGEELCGVMTISDSPREQDSESQTLDKVYQMKSKPRGYCLIINNHNFAKAREKVPKLHSIRDRNGTHLDAGALTTTFEELHFEIKPHDDCTVEQIYEILKIYQLMDHSNMDCFICCILSHGDKGIIYGTDGQEAPIYELTSQFTGLKCPSLAGKPKVFFIQASQGDNYQKGIPVETDSEEQPYLEMDLSSPQTRYIPDEADFLLGMATVNNCVSYRNPAEGTWYIQSLCQSLRERCPRGDDILTILTEVNYEVSNKDDKKNMGKQMPQPTFTLRKKLVFPSD | bound | not cytotoxic

From patent publication US7799901B2, “Modulators of the function of FAS receptors and other proteins” (Yeda Research and Development Co. Ltd., priority 1995, dated 2010)
